Source: PMC7139957

Target: laminin-111 (UniProt P19137)
Test: AFM single-molecule force spectroscopy; integrin coupled to PEG-functionalized cantilever, laminin-111 (3 µg/mL) coated on mica; contact 1 s, retraction 300 nm/s; rupture force of the last contact

Row | Substance | rupture force [pN]
1 | soluble recombinant integrin α7hiβ1 ectodomains (hinge mutant, C604 and C610 replaced by alanine), heterodimerized with the zipper domains of Fos and Jun (from UniProt P05556 21-728) (complex) | 16
2 | soluble recombinant integrin α7wtβ1 ectodomains, heterodimerized with the zipper domains of Fos and Jun (from UniProt P05556 21-728) (complex) | 30
